Measured values reported in publication PMC5915732, “Human Cytomegalovirus Encodes a Novel FLT3 Receptor Ligand Necessary for Hematopoietic Cell Differentiation and Viral Reactivation” (mBio, 2018).

B1: recombinant human Flt-3 ligand (Flt-3L) (ligand, UniProt P49771 27-184, looked up)
chain: TQDCSFQHSPISSDFAVKIRELSDYLLQDYPVTVASNLQDEELCGGLWRLVLAQRWMERLKTVAGSKMQGLLERVNTEIHFVTKCAFQPPPSCLRFVQTNISRLLQETSEQLVALKPWITRQNFSRCLELQCQPDSSTLPPPWSPRPLEATAPTAPQP
notes: recombinant human Flt-3 ligand, soluble; No catalogue number is printed; also called soluble Flt-3 ligand; 100XFlt-3L; source: bought: R&S Systems (so in the source)

Experiments:
[1] = biological target: human Fms-like tyrosine kinase 3 receptor (Flt-3R), GFP-tagged, on stable HEK-293 cells (HEK-293-hFlt-3R) (human) (UniProt P36888); assay: ELISA; competition on cells: HEK-293-hFlt-3R cells preincubated 1 h with 100-fold excess of nonbiotinylated pUL7 (5 ug/ml), Flt-3L (5 ug/ml), anti-Flt-3R antibody (1:100) or control antibody, washed with MEM, then incubated with 50 ng/ml biotinylated pUL7; HRP-streptavidin, absorbance at 450 nm
[2] = biological target: human Fms-like tyrosine kinase 3 receptor (Flt-3R), GFP-tagged, on stable HEK-293 cells (HEK-293-hFlt-3R) (human) (UniProt P36888)
[3] = biological target: T1, human Fms-like tyrosine kinase 3 receptor (Flt-3R), GFP-tagged, on stable HEK-293 cells (HEK-293-hFlt-3R) (human, UniProt P36888 27-993); assay: ELISA; competition on cells: HEK-293-hFlt-3R cells preincubated 1 h with 100-fold excess of nonbiotinylated pUL7 (5 ug/ml), Flt-3L (5 ug/ml), anti-Flt-3R antibody (1:100) or control antibody, washed with MEM, then incubated with 50 ng/ml biotinylated pUL7; HRP-streptavidin, absorbance at 450 nm; details: one partner purified
T1 construct: human fms-tyrosine kinase 3 (FLT3), GFP-tagged, from plasmid OriGene RG211459, expressed on HEK-293 cells; In the functional rows from RS4;11 cells the receptor was the endogenous human Flt-3R of those cells, not this construct; also called human Flt-3 receptor; source: HEK-293, stably transfected (OriGene plasmid RG211459, G418 selection), on cells
T1 sequence (looked up): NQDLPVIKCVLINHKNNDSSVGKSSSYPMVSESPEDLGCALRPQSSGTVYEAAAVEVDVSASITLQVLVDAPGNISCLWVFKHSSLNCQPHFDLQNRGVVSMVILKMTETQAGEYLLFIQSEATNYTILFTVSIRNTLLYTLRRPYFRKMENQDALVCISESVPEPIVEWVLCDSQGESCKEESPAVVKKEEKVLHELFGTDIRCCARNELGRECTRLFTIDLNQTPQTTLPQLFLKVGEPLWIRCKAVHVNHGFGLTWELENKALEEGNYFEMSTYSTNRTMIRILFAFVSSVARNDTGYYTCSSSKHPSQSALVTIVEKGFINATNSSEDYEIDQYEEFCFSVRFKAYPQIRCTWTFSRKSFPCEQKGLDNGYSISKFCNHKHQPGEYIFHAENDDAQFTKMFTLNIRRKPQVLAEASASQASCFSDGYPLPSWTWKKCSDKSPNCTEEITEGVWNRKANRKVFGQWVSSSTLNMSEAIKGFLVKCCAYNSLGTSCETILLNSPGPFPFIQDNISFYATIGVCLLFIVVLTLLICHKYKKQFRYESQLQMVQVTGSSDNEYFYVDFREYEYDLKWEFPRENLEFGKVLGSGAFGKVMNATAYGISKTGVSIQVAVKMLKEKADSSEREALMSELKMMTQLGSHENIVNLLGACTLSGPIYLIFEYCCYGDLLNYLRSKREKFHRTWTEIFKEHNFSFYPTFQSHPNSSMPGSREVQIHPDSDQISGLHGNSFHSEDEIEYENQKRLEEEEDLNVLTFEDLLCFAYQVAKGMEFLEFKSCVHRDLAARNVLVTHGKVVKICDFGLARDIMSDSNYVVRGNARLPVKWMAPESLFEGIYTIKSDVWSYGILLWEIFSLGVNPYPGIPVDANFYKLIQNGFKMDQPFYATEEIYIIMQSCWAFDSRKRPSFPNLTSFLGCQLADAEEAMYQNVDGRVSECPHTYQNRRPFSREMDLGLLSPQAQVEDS

| Molecule | percent reduction in binding of biotinylated pUL7 (100-fold excess of competitor) [1] [%] | phosphorylation of Akt (immunoblot) in serum-starved RS4;11 cells stimulated with 50 ng/ml pUL7, within 10 min, fold compared to the Fc control [2] [fold] | phosphorylation of ERK1/2 (immunoblot) in serum-starved RS4;11 cells stimulated with 50 ng/ml pUL7, within 10 min, fold compared to the Fc control [2] [fold] | phosphorylation of Flt-3R (immunoblot) in serum-starved RS4;11 cells stimulated with 50 ng/ml pUL7, within 10 min, fold compared to the Fc control [2] [fold] | percent reduction in binding of biotinylated pUL7 (100-fold excess of competitor) [3] [%] |
| --- | --- | --- | --- | --- | --- |
| purified UL7 (pUL7), recombinant UL7 protein from HCMV TB40E, nonbiotinylated (Fc fusion) | 62 | 8 | 9 | 14 |  |
| B1 |  |  |  |  | 63 |
